We go through three molecules from patent publication US20260139017A1, “COMPOSITIONS AND METHODS USING REELIN IN ALZHEIMER'S DISEASE” (The General Hospital Corporation, priority 2022, published 2026).

Test [1] has as its system pDAB1 (Tyr232). Kind of test: HRECs treated 5 minutes with recombinant mini-RELN, pDAB1 western blot. The format is cell-based, human. The following applies: 5 minutes, 4 ug/mL recombinant protein. How it is done: For in vitro screening of constructs using recombinant mini-RELN on HRECs, the cells were cultured in EBM-2 media enriched with EGM-2 Single Quots (Lonza) at 37° C. and 5% CO2 and experimentally tested at passage 7. 24 h prior experiment, cells were plated on a 6-well plate at 500,000 cells/mL. Two hours before the experiment, the cells were washed with PBS to remove residual growth media and then incubated with a starving media including EBM-2, 1% GlutaMax+0.2% Normicin. Treatments was conducted using recombinant mini RELN constructs obtained from Innovagen and Recombinant Mouse Reelin Protein from R&D systems (3820-MR-025/CF). Each treatment was incubated for 5 minutes at 4 ug/mL concentration and cells were subsequently harvested in lysis buffer was applied constituted of RIPA (Cell signaling), proteases inhibitors (cOmplete™, Mini, EDTA-free Protease Inhibitor Cocktail, Roche), phosphatases inhibitors (PhosSTOP, Roche), 1 μL of proteasome inhibitor MG-132 10 mM, 1% Triton X 100. The lysates were scraped and centrifugated at 15000 rpm for 10 minutes at 4° C. Total protein levels were quantified via BCA assay. For Western Blotting, 3.5 ug protein homogenates were prepared under reducing and denaturing conditions using Laemmli buffer enriched with 10 mM DTT and 5 min boiling. Samples were electrophoretically separated in a 4-20% Gel at 90V and protein transferred to a PVDF membrane using iBlot™ 2 Dry Blotting System. The membrane was blocked using Intercept® (TBS) Blocking Buffer for 2 hours. We detected pDAB1 (Tyr232; 1:1000, rabbit, #3325 Cell signaling), and total protein staining (Licor). Antibodies were diluted using Intercept® (TBS) Blocking Buffer and incubated overnight at 4C under gentle shaking. Prior secondary antibody incubation, membranes were washed 2 times using TBS-T for 10 minutes. As secondary antibodies we used IR Dye 800n CW Goat-anti-Rabbit (925-32211, Licor) diluted 1:10000 in blocking buffer for 1 h at room temperature under gentle shaking. Membranes were washed three times with TBST-T prior IR detection using Odyssey imager. To quantify the results, each band was quantified using ImageJ and data expressed as pDABL:total protein ratio normalized to the control.
A general note: A western blot detects proteins with antibodies after separation by electrophoresis.

The target of the next test is T1, NRP1 (Homo sapiens, UniProt O14786).
T1 construct: purchased R&D 3870-N1-025
T1 sequence (O14786 22-644 isoform O14786-2 limits assumed): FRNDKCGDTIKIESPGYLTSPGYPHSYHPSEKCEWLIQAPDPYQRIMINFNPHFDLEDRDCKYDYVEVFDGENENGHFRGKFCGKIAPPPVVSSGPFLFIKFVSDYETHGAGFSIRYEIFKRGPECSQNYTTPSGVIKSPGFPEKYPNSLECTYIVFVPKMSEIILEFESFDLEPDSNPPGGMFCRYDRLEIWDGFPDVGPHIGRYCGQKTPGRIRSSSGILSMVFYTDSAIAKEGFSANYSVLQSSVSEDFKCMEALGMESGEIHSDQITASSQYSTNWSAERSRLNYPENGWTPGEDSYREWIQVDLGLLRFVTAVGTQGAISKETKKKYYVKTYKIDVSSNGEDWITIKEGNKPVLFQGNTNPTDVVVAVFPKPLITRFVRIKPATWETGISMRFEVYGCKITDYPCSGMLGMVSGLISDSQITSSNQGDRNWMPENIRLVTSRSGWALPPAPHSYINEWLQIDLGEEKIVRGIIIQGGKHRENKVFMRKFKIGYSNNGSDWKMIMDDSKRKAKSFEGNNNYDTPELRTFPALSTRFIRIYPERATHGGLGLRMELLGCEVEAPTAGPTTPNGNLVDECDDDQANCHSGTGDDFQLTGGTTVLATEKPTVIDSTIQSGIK
Nature of the test: Bio-layer interferometry (BLI) of CTR-RELN-NRP-1 interactions. The following applies: immobilized biotinylated NRP1. In kind it is binding. As for the experimental part: Bio-layer interferometry (BLI) was additionally used to assess NRP1-protein kinetics at 30° C. and 1000 rpm agitation. 1 mg/mL NRP1 (R&D 3870-N1-025) was biotinylated at a 1:2 molar ratio, desalted, and immobilized on the SA biosensor tip (Pall ForteBio) surface. This was followed by 1) 180 seconds baseline buffer diluent, 2) loading of the ligand (NRP1), 3) 180 seconds baseline buffer diluent, 4) 240 seconds association (analyte), and 5) 300 seconds disassociation in assay buffer. Assay buffer: SD Buffer (pH7.4 PBS, 0.05% tween20, 0.01% BSA).
The experimental data were fit with the 1:1 binding model and analyzed with global fitting using Octet Data Analysis software to calculate KD.
Bio-layer interferometry (BLI) was used to assess NRP1-protein kinetics at 30° C. and 1000 rpm agitation using previously published methods. 1 mg/mL NRP1 (R&D 3870-N1-025) was biotinylated at a 1:2 molar ratio, desalted, and immobilized on the SA biosensor tip (Pall ForteBio) surface. This was followed by 1) 180 seconds baseline buffer diluent, 2) loading of the ligand (NRP1), 3) 180 seconds baseline buffer diluent, 4) 240 seconds association (analyte), and 5) 300 seconds disassociation in assay buffer. Assay buffer: SD Buffer (pH7.4 PBS, 0.05% tween20, 0.01% BSA).
A general note: BLI is a label-free optical method that tracks binding on a fibre tip over time.

For test [2], the system named is pDAB1 (Tyr232). Kind of test: HRECs treated 5 minutes with HEK 293T-derived mini-RELN media, pDAB1 western blot. The format is cell-based, human. Conditions: HEK 293T-derived media 1:1, 1:4, 1:14, 5 minutes. How it is done: The effect of in vitro treatment with RELN or miniRELN protein was also evaluated. HRECs were cultured in EBM-2 media enriched with EGM-2 Single Quots (Lonza) at 37° C. and 5% CO2 and experimentally tested at passage 7. 24 h prior experiment, cells were plated on a 6-well plate at 500,000 cells/mL. Two hours before the experiment, the cells were washed with PBS to remove residual growth media and then incubated with a starving media including EBM-2, 1% GlutaMax+0,2% Normicin. Treatments was conducted using media derived from HEK 293T cells transiently transfected for 24 h with different mini-RELN constructs in the presence of Lipofectamine 2000. HEK-derived Lipofectamine2000-media was used as negative control. HEK 293T-derived media was tested at different ratio 1:1, 1:4, and 1:14 (Transfected media:Starving media). Each treatment was incubated for 5 minutes and cells were subsequently harvested in lysis buffer was applied constituted of RIPA (Cell signaling), proteases inhibitors (cOmplete™, Mini, EDTA-free Protease Inhibitor Cocktail, Roche), phosphatases inhibitors (PhosSTOP, Roche), 1 μL of proteasome inhibitor MG-132 10 mM, 1% Triton X 100. The lysates were scraped and centrifugated at 15000 rpm for 10 minutes at 4° C. Total protein levels were quantified via BCA assay. […] We detected pDAB1 (Tyr232; 1:1000, rabbit, #3325 Cell signaling), and Beta actin (1:5000, mouse, #66009-1-Ig, Proteintech. Antibodies were diluted using Intercept® (TBS) Blocking Buffer and incubated overnight at 4C under gentle shaking. Prior secondary antibody incubation, membranes were washes 2 times using TBS-T for 10 minutes. As secondary antibodies we used IR Dye 800n CW Goat-anti-Rabbit (925-32211, Licor) and IR Dye 680 CW Goat-anti-Mouse (925-68070, Licor) both diluted 1:10000 in blocking buffer for 1 h at room temperature under gentle shaking. Membranes were washed three times with TBS-T prior IR detection using Odyssey imager. To quantify the results, each band was quantified using ImageJ and data expressed as pDAB1:βActin ratio normalized to the control. […]

B1: hG2Fc-R5-6-C-termH3447R (protein)
chain: MYRMQLLSCIALSLALVTNSAPLERKSSVECPPCPAPPVAGPSVFLFPPKPKDTLMISRTPEVTCVVVDVSHEDPEVQFNWYVDGVEVHNAKTKPREEQFNSTFRVVSVLTVVHQDWLNGKEYKCKVSNKGLPAPIEKTISKTKGQPREPQVYTLPPSREEMTKNQVSLTCLVKGFYPSDIAVEWESNGQPENNYKTTPPMLDSDGSFFLYSKLTVDKSRWQQGNVFSCSVMHEALHNHYTQKSLSLSPGARTGGGGSGGGGSQTNATRFRLWQPYNNGKKEEIWIVDDFIIDGNNVNNPVMLLDTFDFGPREDNWFFYPGGNIGLYCPYSSKGAPEEDSAMVFVSNEVGEHSITTRDLNVNENTIIQFEINVGCSTDSSSADPVRLEFSRDFGATWHLLLPLCYHSSSHVSSLCSTEHHPSSTYYAGTMQGWRREVVHFGKLHLCGSVRFRWYQGFYPAGSQPVTWAIDNVYIGPQCEEMCNGQGSCINGTKCICDPGYSGPTCKISTKNPDFLKDDFEGQLESDRFLLMSGGKPSRKCGILSSGNNLFFNEDGLRMLMTRDLDLSHARFVQFFMRLGCGKGVPDPRSQPVLLQYSLNGGLSWSLLQEFLFSNSSNVGRYIALEIPLKARSGSTRLRWWQPSENGHFYSPWVIDQILIGGNISGNMVLEDDFTTLDSRKWLLHPGGTKMPVCGSTGDALVFIEKASTRYVVSTDVAVNEDSFLQIDFAVSCSVTDSCYAIELEYSVDLGLSWHPLVRDCLPTNVECSRYHLQRILVSDTFNKWTRITLPLPPYTRSQATRFRWHQPAPFDKQQTWAIDNVYIGDGCIDMCSGHGRCIQGNCVCDEQWGGLYCDDPETSLPTQLKDNFNRAPSSQNWLTVNGGKLSTVCGAVASGMALHFSGGCSRLLVTVDLNLTNAEFIQFYFMYGCLITPNNRNQGVLLEYSVNGGITWNLLMEIFYDQYSKPGFVNILLPPDAKEIATRFRWWQPRHDGLDQNDWAIDNVLISGSASTRKQNYMMNFSRQHGLRRFYNRRRRSLRRYP
Take B1: in the test on pDAB1 (Tyr232) [1], the pDAB1 levels entry is on record as “increased pDAB1 levels”.

B2: pfcn-huIgG2-C-termH3447R (protein)
chain: MYRMQLLSCIALSLALVTNSAPLERKSSVECPPCPAPPVAGPSVFLFPPKPKDTLMISRTPEVTCVVVDVSHEDPEVQFNWYVDGVEVHNAKTKPREEQFNSTFRVVSVLTVVHQDWLNGKEYKCKVSNKGLPAPIEKTISKTKGQPREPQVYTLPPSREEMTKNQVSLTCLVKGFYPSDIAVEWESNGQPENNYKTTPPMLDSDGSFFLYSKLTVDKSRWQQGNVFSCSVMHEALHNHYTQKSLSLSPGARTSTRKQNYMMNFSRQHGLRRFYNRRRRSLRRYP
In the test with NRP1, B2 had a ka of 12900 M⁻¹ s⁻¹ and a kd of 0.00102 s⁻¹.

B3: IL2ss-6xHis-FspCR50-R6-R6 Cterm RELN-H3447R (protein)
chain: MYRMQLLSCIALSLALVTNSGGHHHHHHGGGAAGYYPRFSPFFFLCTHHGELEGDGEQGEVLISLHIAGNPTYYVPGQEYHVTISTSTFFDGLLVTGLYTSTSVQASQSIGGSSAFGFGIMSDHQFGNQFMCSVVASHVSHLPTTNLSFIWIAPPAGTGCVNFMATATHRGQVIFKDALAQQLCEQGAPTDVTVHPHLAEIHSDSIILRDDFDSYHQLQLNPNIWVECNNCETGEQCGAIMHGNAVTFCEPYGPRELITTGLNTTTASVLQFSIGSGSCRFSYSDPSIIVLYAKNNSADWIQLEKIRAPSNVSTIIHILYLPEDAKGENVQFQWKQENLRVGEVYEACWALDNILIINGGSRTLDSRKWLLHPGGTKMPVCGSTGDALVFIEKASTRYVVSTDVAVNEDSFLQIDFAVSCSVTDSCYAIELEYSVDLGLSWHPLVRDCLPTNVECSRYHLQRILVSDTFNKWTRITLPLPPYTRSQATRFRWHQPAPFDKQQTWAIDNVYIGDGCIDMCSGHGRCIQGNCVCDEQWGGLYCDDPETSLPTQLKDNFNRAPSSQNWLTVNGGKLSTVCGAVASGMALHFSGGCSRLLVTVDLNLTNAEFIQFYFMYGCLITPNNRNQGVLLEYSVNGGITWNLLMEIFYDQYSSGGGTLDSRKWLLHPGGTKMPVCGSTGDALVFIEKASTRYVVSTDVAVNEDSFLQIDFAVSCSVTDSCYAIELEYSVDLGLSWHPLVRDCLPTNVECSRYHLQRILVSDTFNKWTRITLPLPPYTRSQATRFRWHQPAPFDKQQTWAIDNVYIGDGCIDMCSGHGRCIQGNCVCDEQWGGLYCDDPETSLPTQLKDNFNRAPSSQNWLTVNGGKLSTVCGAVASGMALHFSGGCSRLLVTVDLNLTNAEFIQFYFMYGCLITPNNRNQGVLLEYSVNGGITWNLLMEIFYDQYSTGGSGGSTRKQNYMMNFSRQHGLRRFYNRRRRSLRRYP
As for B3, the “pDAB1 / Dab1 signaling activation” value in the test on pDAB1 (Tyr232) [2] is reported as “efficacy”.
